Measurements taken from the supplement of paper PMC7125110.
± gives the standard error. For some assays here: Variants at the floor of the assay were thinned out.

B1: glmS ribozyme (parent)
chain: AUAAAAGCGCCAGAACUACAGAAAUGUAGUUGACGAGGAGGAGGUUUAUCGAAUUUUCGGCGGAUGCCUCCAAA

Columns and labels:
Conditions in all cases: with glucosamine-6-phosphate
glucosamine-6-phosphate [1] = variants of: B1; assay: kcat; higher = faster cleavage; RNA array
Outline: (§1)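 Tracking of barcoded ribozyme variants used a hybridised Cy3 probe at 37 °C, after in situ transcription by E. coli RNA polymerase on sequenced MiSeq chips. The flowed solution held 40 μM to 10 mM glucosamine-6-phosphate in HEPES/KCl/Mg(OAc)2 buffer, and imaging ran over ~14 h. kobs was taken from exponential decay fits of normalised per-tile medians, and kcat and KM from weighted Michaelis–Menten fits.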

glucosamine-6-phosphate [2] = variants of: B1; assay: self-cleavage kobs at 2500 uM GlcN6P; higher = faster cleavage; RNA array
Outline: as §1

glucosamine-6-phosphate [3] = variants of: B1; assay: self-cleavage kobs at 160 uM GlcN6P; higher = faster cleavage; RNA array
Outline: as §1

glucosamine-6-phosphate [4] = variants of: B1; assay: self-cleavage kobs at 10000 uM GlcN6P; higher = faster cleavage; RNA array
Outline: as §1

glucosamine-6-phosphate [5] = variants of: B1; assay: KM; higher = weaker cofactor use; RNA array
Outline: as §1

glucosamine-6-phosphate [6] = variants of: B1; assay: self-cleavage kobs at 40 uM GlcN6P; higher = faster cleavage; RNA array
Outline: as §1

glucosamine-6-phosphate [7] = variants of: B1; assay: self-cleavage kobs at 640 uM GlcN6P; higher = faster cleavage; RNA array
Outline: as §1

Variant | kcat (glucosamine-6-phosphate [1]) [s⁻¹] | self-cleavage kobs at 2500 uM GlcN6P (glucosamine-6-phosphate [2]) [s⁻¹] | self-cleavage kobs at 160 uM GlcN6P (glucosamine-6-phosphate [3]) [s⁻¹] | self-cleavage kobs at 10000 uM GlcN6P (glucosamine-6-phosphate [4]) [s⁻¹] | KM (glucosamine-6-phosphate [5]) [µM] | self-cleavage kobs at 40 uM GlcN6P (glucosamine-6-phosphate [6]) [s⁻¹] | self-cleavage kobs at 640 uM GlcN6P (glucosamine-6-phosphate [7]) [s⁻¹]
A6U C50U | < 1e-05 | < 1e-05 |  |  |  |  | 
U30C G62U | < 1e-05 |  | < 1e-05 | < 1e-05 |  |  | 
U55C | 0.0394 ± 0.0032 | 0.0201 ± 0.001 | 0.0027 ± 0.00018 | 0.0349 ± 0.0014 | 2000 ± 200 | 0.000797 ± 1.8e-05 | 0.0091 ± 0.00035
A33C A39C | 3.87e-05 ± 3.3e-06 | 3.92e-05 ± 8e-06 |  | 3.54e-05 ± 7.3e-06 |  |  | 
A15G A42U | 0.000248 ± 4.1e-05 | 0.000216 ± 3.8e-05 | 2.77e-05 ± 1.4e-05 | 0.000203 ± 3e-05 | 1410 ± 570 |  | 6.62e-05 ± 1.7e-05
C34A G38U | < 1e-05 |  |  |  |  |  | < 1e-05
U30A U65G | 0.00214 ± 0.00022 | 0.000614 ± 0.00016 | 6.8e-05 ± 2.4e-05 | 0.00141 ± 0.00016 | 5250 ± 1000 |  | 0.000275 ± 8.9e-05
C16G U55A | 0.00566 ± 0.0022 | 0.00327 ± 0.00047 | 0.000313 ± 6.3e-05 | 0.00463 ± 0.00062 |  | 0.00015 ± 1.9e-05 | 0.000819 ± 0.00014
A39U U57G | 2.55e-05 ± 5.3e-06 | 3.12e-05 ± 1.3e-05 |  | 2.2e-05 ± 9.3e-06 |  |  | 
U30A C58G G59A C70G | 2.1e-05 ± 2.6e-06 |  |  |  |  |  | 
A33C C70U | 1.19e-05 ± 4.5e-06 |  |  |  |  |  | 
G40U U57A | 6e-05 ± 6.8e-06 |  |  | 2.24e-05 ± 1e-05 |  | < 1e-05 | 
G37A G66U | 0.000462 ± 0.00011 | 0.000217 ± 3.4e-05 |  | 0.000301 ± 6.5e-05 | 3940 ± 1500 |  | 5.56e-05 ± 1.3e-05
A6U A23C U30G | 5.38e-05 ± 1.9e-06 |  |  | 4.19e-05 ± 1.6e-05 | 2780 ± 300 |  | 
G29U U54A | 0.00792 ± 0.0027 | 0.00361 ± 0.0006 | 0.000284 ± 7.7e-05 | 0.0068 ± 0.00083 | 2360 ± 1100 | 0.000181 ± 1.9e-05 | 0.00184 ± 0.0003
C10G C61A | 1.32e-05 ± 9.6e-07 |  |  | < 1e-05 | 180 ± 67 | < 1e-05 | < 1e-05
G41A U54G | 0.000873 ± 0.00013 | 0.000898 ± 0.00016 |  | 0.000661 ± 0.00021 | 336 ± 90 | 9.13e-05 ± 1.9e-05 | 0.00057 ± 0.00021
U31A | 0.0242 ± 0.0089 | 0.00997 ± 0.00043 | 0.00127 ± 5.8e-05 | 0.0286 ± 0.0012 | 2460 ± 1100 | 0.000428 ± 7.9e-06 | 0.00431 ± 0.00015

Variant | kcat (glucosamine-6-phosphate [1]) [s⁻¹] | self-cleavage kobs at 2500 uM GlcN6P (glucosamine-6-phosphate [2]) [s⁻¹] | self-cleavage kobs at 160 uM GlcN6P (glucosamine-6-phosphate [3]) [s⁻¹] | self-cleavage kobs at 10000 uM GlcN6P (glucosamine-6-phosphate [4]) [s⁻¹] | KM (glucosamine-6-phosphate [5]) [µM] | self-cleavage kobs at 40 uM GlcN6P (glucosamine-6-phosphate [6]) [s⁻¹] | self-cleavage kobs at 640 uM GlcN6P (glucosamine-6-phosphate [7]) [s⁻¹]
G41C A52G | 1.14e-05 ± 2.5e-06 |  |  |  |  |  | 
A12G U56G | 0.000904 ± 9.3e-05 | 0.00024 ± 2.2e-05 |  | 0.000553 ± 5.7e-05 | 6610 ± 950 |  | 8.35e-05 ± 8.6e-06
G44C C67U | 0.00192 ± 0.00015 | 0.00109 ± 0.00024 | 0.000153 ± 3.2e-05 | 0.00168 ± 0.0003 | 1700 ± 200 | 5.1e-05 ± 1.3e-05 | 0.000532 ± 0.00011
C16G A39G | 0.0108 ± 0.0041 | 0.00841 ± 0.0019 | 0.000353 ± 0.00011 | 0.00779 ± 0.0013 |  | 0.000228 ± 4.9e-05 | 0.00194 ± 0.00038
G37C U54A U69G | 3.07e-05 ± 5e-06 |  |  |  |  |  | 
U54C C67A | 0.00598 ± 0.0014 |  | 0.000315 ± 0.00012 | 0.00521 ± 0.00071 | 1580 ± 590 | 0.000198 ± 3.2e-05 | 0.00199 ± 0.00058
G40C C70U C71G | 0.00208 ± 0.00091 | 0.00208 ± 0.00051 | 0.000296 ± 8.3e-05 | 0.00243 ± 0.00039 |  | 0.000192 ± 2.7e-05 | 0.000624 ± 0.00016
G13U A52U | 1.58e-05 ± 2.6e-06 |  | < 1e-05 |  |  | < 1e-05 | 
G59A U65C | 1.55e-05 ± 5.6e-06 |  |  |  |  |  | 
A39U U49G | 0.00055 ± 0.00012 | 0.000231 ± 6.6e-05 |  | 0.000461 ± 7.3e-05 |  |  | 0.000168 ± 5.1e-05
G29U C61G | 3.41e-05 ± 1.3e-05 |  |  | < 1e-05 |  |  | 
C16G | 0.0106 ± 0.0035 | 0.01 ± 0.0036 | 0.000423 ± 1.5e-05 | 0.0085 ± 0.0003 | 2880 ± 1100 | 0.000174 ± 3.5e-06 | 0.00182 ± 8.5e-05
C16G G41U | 0.000139 ± 1.4e-05 | 7.39e-05 ± 1.7e-05 |  | 0.000107 ± 1.5e-05 | 2720 ± 780 |  | 
U55G G60A | 2.4e-05 ± 6.2e-07 |  |  |  | 1810 ± 130 |  | 
U30C C67G C68A | 1.14e-05 ± 4e-06 |  |  | < 1e-05 |  | < 1e-05 | 
U47C C68G | 6.88e-05 ± 2.3e-06 | 5.33e-05 ± 1.1e-05 |  | 6.6e-05 ± 7.8e-06 | 573 ± 80 |  | 3.62e-05 ± 7.3e-06
G32A G40C A48U | < 1e-05 |  |  |  |  | < 1e-05 | 
A14U G40A | 0.0018 ± 0.0003 |  |  | 0.00161 ± 0.00021 | 1500 ± 450 | 4.43e-05 ± 1e-05 | 0.000643 ± 0.00013
